According to the RNAGym collection of RNA variant scans (doi:10.1073/pnas.2313332121):
This sample holds only a part of the variants without activity.

B1: TPR 5TU (parent)
chain: GGAUCUUCUCGAUCUAACAAAAAAGACAAAUCUGCCACAAAGCUUGAGAGCAUCUUCGGAUGCAGAGGCGGCAGCCUUCGGUGGCGCGAUAGCGCCAACGUUCUCAACUAUGACACGCAAAACGCGUGCUCCGUUGAAUGGAGUUUAUCAUG

Variants of: B1
Experiment: polymerase ribozyme fitness, log enrichment relative to wild type (log ratio); higher = more active; in vitro selection for triplet polymerase activity
Procedure, shortened: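 Each subunit of a heterodimeric triplet polymerase ribozyme was represented by a PCR-built, transcribed mutant library that underwent triplicate single-round in vitro selection with frozen incubation at −7 °C. Extended constructs were recovered by gel excision, streptavidin-bead capture and RT-PCR, and Illumina sequencing of input and output libraries kept genotypes with ≥10 input reads and ≥1 read per output. Fitness is the logarithm of genotype enrichment relative to wild-type enrichment, from inverse-variance-weighted replicate averages, with a logarithm base of 2.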
For C14U U45G C87A C95U C103A, the “polymerase ribozyme fitness (log ratio)” value was -4.17. In the case of C14U G84C A122G G136A, the “polymerase ribozyme fitness (log ratio)” value is reported as -3.51. For U15C A41C C57U C76U C93U, the “polymerase ribozyme fitness (log ratio)” value was -0.0442. With U15A A30G U78G C87G the “polymerase ribozyme fitness (log ratio)” value was at most -4.2. For U15C U56A G94A A142G, the “polymerase ribozyme fitness (log ratio)” value was -0.297. With U15A G46U A47C C72U G88U G94A C95G A97G C108G A115G the “polymerase ribozyme fitness (log ratio)” value was at most -4.2. In the case of U15A C18G U146G, the “polymerase ribozyme fitness (log ratio)” value is reported as -0.119. With C14U C51U U56A A119G the “polymerase ribozyme fitness (log ratio)” value was -2.23. In the case of U15A U56A G70A, the “polymerase ribozyme fitness (log ratio)” value is reported as -4.2. In the case of U15A C38A A73U G83U G84C, the “polymerase ribozyme fitness (log ratio)” value is reported as at most -4.2. In the case of C14U A41U C69A C85U, the “polymerase ribozyme fitness (log ratio)” value is reported as at most -4.2. In the case of C14G U45G G46A C54U C72A U139G A142U, the “polymerase ribozyme fitness (log ratio)” value is reported as at most -4.2. For C14U C51U A66G C87A C116U U148C, the “polymerase ribozyme fitness (log ratio)” value was at most -4.2. In the case of U15C G50C U101G C105U, the “polymerase ribozyme fitness (log ratio)” value is reported as -1.68. With C14G U56A C96U the “polymerase ribozyme fitness (log ratio)” value was -3.43. In the case of C14U A37C, the “polymerase ribozyme fitness (log ratio)” value is reported as -1.79. For C14U G46A U55G, the “polymerase ribozyme fitness (log ratio)” value was -3.69. In the case of U15C A26G U44G C54U C63U C87G U90C, the “polymerase ribozyme fitness (log ratio)” value is reported as at most -4.2. In the case of C14U A30G G48A C76G A98U U102G, the “polymerase ribozyme fitness (log ratio)” value is reported as at most -4.2. With U15C U56G C63U C95A C96A A106G the “polymerase ribozyme fitness (log ratio)” value was -1.5. For C14U A39G C93U G143A, the “polymerase ribozyme fitness (log ratio)” value was at most -4.2. With U15G A28U A49C A66C C79A A97U G124A the “polymerase ribozyme fitness (log ratio)” value was at most -4.2. In the case of U15A G42U C87G G94A C99G C125U U148A, the “polymerase ribozyme fitness (log ratio)” value is reported as at most -4.2. With U15A A26G U77G C95A the “polymerase ribozyme fitness (log ratio)” value was at most -4.2. In the case of C14G U31G G86C U102G, the “polymerase ribozyme fitness (log ratio)” value is reported as at most -4.2. For U15C C85U, the “polymerase ribozyme fitness (log ratio)” value was -0.718. In the case of C14U A52G U53G G74A A91C C96U G141U, the “polymerase ribozyme fitness (log ratio)” value is reported as at most -4.2. With C14U A41U G46A A52U C63G C93U C105G the “polymerase ribozyme fitness (log ratio)” value was at most -4.2. With C14G U15C C85U A121C G126A the “polymerase ribozyme fitness (log ratio)” value was -0.0533. In the case of C14U U55G, the “polymerase ribozyme fitness (log ratio)” value is reported as -1.61. In the case of U15G A24G C35U U55A U77G U90G G94A A97U G140U, the “polymerase ribozyme fitness (log ratio)” value is reported as at most -4.2. For U15C U56A C69A G84A G136A, the “polymerase ribozyme fitness (log ratio)” value was -0.468. In the case of C14U A19C U45A G84A C96A U109C, the “polymerase ribozyme fitness (log ratio)” value is reported as at most -4.2. With U15A A73U C76G C118A A138C G141C the “polymerase ribozyme fitness (log ratio)” value was at most -4.2. For U15G A17U G25A U61G C93G G140U, the “polymerase ribozyme fitness (log ratio)” value was at most -4.2. With U15C C54U the “polymerase ribozyme fitness (log ratio)” value was 0.268. In the case of U15A A23U A39C A47U C96G G141U, the “polymerase ribozyme fitness (log ratio)” value is reported as at most -4.2. For C14U A26G C38U U61G C87A U90A, the “polymerase ribozyme fitness (log ratio)” value was -3.51. In the case of C14U C123G, the “polymerase ribozyme fitness (log ratio)” value is reported as -1.9. For C14U A19G U31C A39C G50A A66U G68U C93G, the “polymerase ribozyme fitness (log ratio)” value was at most -4.2. With U15G A16U C95U A121U U130G the “polymerase ribozyme fitness (log ratio)” value was at most -4.2. In the case of C14G G100U, the “polymerase ribozyme fitness (log ratio)” value is reported as at most -4.2. With C14U C36A A73G G83A G86A the “polymerase ribozyme fitness (log ratio)” value was at most -4.2. In the case of U15A A49C U53A G86U, the “polymerase ribozyme fitness (log ratio)” value is reported as at most -4.2. In the case of U15A U55A C99G, the “polymerase ribozyme fitness (log ratio)” value is reported as -1.2. In the case of U15A G25U A60G G74A C75A A142U, the “polymerase ribozyme fitness (log ratio)” value is reported as at most -4.2. In the case of U15A A22C C72A C87G G88U G133C, the “polymerase ribozyme fitness (log ratio)” value is reported as at most -4.2. In the case of C14G U139C, the “polymerase ribozyme fitness (log ratio)” value is reported as at most -4.2. In the case of U15G A29U C75G C87G G88U A119G C149A, the “polymerase ribozyme fitness (log ratio)” value is reported as at most -4.2. In the case of U15C A24C C36U A40U C79G C93G G100A C125G U139C, the “polymerase ribozyme fitness (log ratio)” value is reported as at most -4.2. For U15C C51A A60U C93A C96G G140A, the “polymerase ribozyme fitness (log ratio)” value was at most -4.2. In the case of U15A A20C G74C G81A C105G U135G U145G U148A, the “polymerase ribozyme fitness (log ratio)” value is reported as at most -4.2. In the case of C14U G65C C87G C96U C132U U139G, the “polymerase ribozyme fitness (log ratio)” value is reported as at most -4.2. For C14U U15C A23U A41U C85A G124U, the “polymerase ribozyme fitness (log ratio)” value was at most -4.2. For C14G G80U G84U C132A, the “polymerase ribozyme fitness (log ratio)” value was at most -4.2. With U15C G88A the “polymerase ribozyme fitness (log ratio)” value was -3.6. For C14G U15G A30U A91G, the “polymerase ribozyme fitness (log ratio)” value was at most -4.2. With C14U G59A C87U U90G C114A the “polymerase ribozyme fitness (log ratio)” value was at most -4.2. For U15A A91G G100C, the “polymerase ribozyme fitness (log ratio)” value was at most -4.2. In the case of U15A A28U G34A A47U C96U G117A, the “polymerase ribozyme fitness (log ratio)” value is reported as at most -4.2. With C14U G25U U31G C43A A47C G62A A91G G94C U104C A138U G140C U145G the “polymerase ribozyme fitness (log ratio)” value was at most -4.2. With C14G U55A the “polymerase ribozyme fitness (log ratio)” value was -2.86. With C14G U61A C85U C93A C108U A115U the “polymerase ribozyme fitness (log ratio)” value was at most -4.2. In the case of C14U A30G G81A C85G A97G G133A, the “polymerase ribozyme fitness (log ratio)” value is reported as at most -4.2. In the case of U15C A91C G94U C96G, the “polymerase ribozyme fitness (log ratio)” value is reported as at most -4.2. For C14U U44A, the “polymerase ribozyme fitness (log ratio)” value was at most -4.2. In the case of U15C C54A C57G C87U A150G, the “polymerase ribozyme fitness (log ratio)” value is reported as -3.99. In the case of C14U U56G U78C G86U, the “polymerase ribozyme fitness (log ratio)” value is reported as -4.1. For C14G U77G G80U C85A, the “polymerase ribozyme fitness (log ratio)” value was at most -4.2. With C14U U53A the “polymerase ribozyme fitness (log ratio)” value was -2.41. For C14U C51U U135C, the “polymerase ribozyme fitness (log ratio)” value was -3.66. With C14U A40U A41U A49U A73G G92A C125U the “polymerase ribozyme fitness (log ratio)” value was -4.11. For C14G U53A, the “polymerase ribozyme fitness (log ratio)” value was -2.66. In the case of C14G U53A G84C G92U C95A A107G A119U, the “polymerase ribozyme fitness (log ratio)” value is reported as at most -4.2. In the case of C14U C93U, the “polymerase ribozyme fitness (log ratio)” value is reported as -2.62. With U15A C51U G58U C69G the “polymerase ribozyme fitness (log ratio)” value was -1.91. With C14U G34A G84U G140U the “polymerase ribozyme fitness (log ratio)” value was at most -4.2. For C14U A52U C85G G133C A142G, the “polymerase ribozyme fitness (log ratio)” value was at most -4.2. For U15A G84U C95U G143C, the “polymerase ribozyme fitness (log ratio)” value was -4.14. With C14G U33C C87A A91C the “polymerase ribozyme fitness (log ratio)” value was at most -4.2. For C14U U78C, the “polymerase ribozyme fitness (log ratio)” value was -2.43. With C14G U44G U53A C75A U90C C93U the “polymerase ribozyme fitness (log ratio)” value was at most -4.2. With C14U A16G U56A the “polymerase ribozyme fitness (log ratio)” value was -2.11.
